{"source": "patent US20100021456A1", "key": {"[1]": {"target": "IL-17RC receptor (IL-17 receptor C) on RA synoviocytes (human) (UniProt Q8NAC3)", "sequence (Q8NAC3 21-791)": "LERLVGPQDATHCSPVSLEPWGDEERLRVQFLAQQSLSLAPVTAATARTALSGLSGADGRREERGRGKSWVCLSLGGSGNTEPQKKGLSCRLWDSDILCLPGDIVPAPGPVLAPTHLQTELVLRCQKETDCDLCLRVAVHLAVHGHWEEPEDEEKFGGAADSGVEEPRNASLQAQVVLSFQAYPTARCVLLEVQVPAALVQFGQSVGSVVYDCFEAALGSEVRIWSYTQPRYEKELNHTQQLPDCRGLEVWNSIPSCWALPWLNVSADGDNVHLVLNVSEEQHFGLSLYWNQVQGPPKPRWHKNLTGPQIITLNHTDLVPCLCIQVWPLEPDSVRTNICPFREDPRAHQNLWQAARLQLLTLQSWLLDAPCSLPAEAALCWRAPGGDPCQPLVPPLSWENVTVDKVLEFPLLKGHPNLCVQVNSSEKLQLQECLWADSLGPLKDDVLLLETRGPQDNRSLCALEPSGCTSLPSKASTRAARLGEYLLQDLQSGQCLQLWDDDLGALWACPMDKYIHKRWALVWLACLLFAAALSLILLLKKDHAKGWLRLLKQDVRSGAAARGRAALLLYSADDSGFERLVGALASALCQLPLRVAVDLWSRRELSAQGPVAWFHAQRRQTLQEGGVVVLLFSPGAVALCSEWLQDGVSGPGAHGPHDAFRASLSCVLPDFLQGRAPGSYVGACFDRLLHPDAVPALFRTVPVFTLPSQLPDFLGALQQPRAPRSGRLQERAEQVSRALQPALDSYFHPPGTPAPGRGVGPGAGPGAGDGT", "test": "cell-based or functional assay"}, "[2]": {"target": "IL-17RA receptor (IL-17 receptor A) on RA synoviocytes (human) (UniProt Q96F46)", "test": "cell-based or functional assay"}}}
{"substance": "recombinant human IL-17A (R&D Systems) (from UniProt Q16552 24-155) (ligand)", "values": [{"measurement": "reduction in secreted IL-6 induced by IL-17A in the presence of TNF-α, after simultaneous IL-17RA and IL-17RC iRNAs", "setting": "[1]", "value": 20, "unit": "%"}, {"measurement": "reduction in secreted IL-6 induced by IL-17A in the presence of TNF-α, after simultaneous IL-17RA and IL-17RC iRNAs", "setting": "[2]", "value": 20, "unit": "%"}]}
